Measured values from US8624002B2, “Prostaglandin E2 binding proteins and uses thereof” (AbbVie, Inc., priority 2008, dated 2014).
Read-outs that look alike come from different tables or passages of the source.

How the values were obtained:
[1] = test system: PGE2 induced Ca++ influx in HEK293 Gα16 cells stably transfected with human EP4 receptor; experiment: EP4 bioassay: PGE2 induced Ca++ flux (FLIPR); format: cell-based
[2] = ^3H-PGE2 competition ELISA (prostaglandin selectivity); format: binding
Description: Alternatively, prostaglandin selectivity was determined using a ^3H-PGE2 competition ELISA. Plates were coated with 50 μL/well of 5 μg/ml of goat anti-human IgG (Fc) (Thermo Scientific # 31170, Hudson, N.H.) or goat anti-mouse IgG (Fc) (Thermo Scientific # 31125, Hudson, N.H.) in PBS and incubated overnight at 4° C. The following day plates were flicked and blotted dry. Plates were blocked with 200 μL/well of Superblock (Thermo Scientific # 37515, Hudson, N.H.), 1 hour at room temperature. Plates were flicked and blotted dry. Monoclonal antibodies were diluted to 0.04 μg/ml in PBST (Abbott Bioresearch Center, Worcester, Mass.)/10% Superblock and 50 μL of each was added to each well (2 ng/well) of the pre-blocked ELISA plate and incubated for 1 hour at room temperature. Wells were washed 3 times with PBS/0.1% Tween-20. ^3H-PGE2 (Perkin Elmer # NET-428, Waltham, Mass.) was diluted in PBST/10% Superblock to 6 nM (2× stock). Each prostaglandin (Cayman Chemicals, Ann Arbor, Mich.) was prepared in PBST+10% Superblock at various concentrations ranging from 2000 μM (2× stock) to 0.00004 μM (2×). Equal volumes of the ^3H-PGE2 solution and of each prostaglandin dilution were mixed. Fifty microliters of this mixture was then added to each well of the plate and incubated for 1 hour at room temperature. Wells were washed manually 6 times with PBST/10% Superblock and 50 μL of scintillation fluid (Perkin Elmer # 6013621, Waltham, Mass.) added to each well. Plates were read using a TopCount reader (Perkin Elmer, Waltham, Mass.) with a 5 minute count delay. IC50 number was determined using GraphPad Prism 5 (GraphPad Software, La Jolla, Calif.). The cross reactivity index was then calculated by IC50 of PGE2/IC50 of other prostaglandin(s)

[3] = Capillary zone electrophoresis; format: physicochemical; settings: running buffer pH 5.5; compared with Hu2B5.2, Hu2B5.4, Hu2B5.6, Hu2B5.8
[4] = PGE2 25 pm, read-out: IC50 (pM) @ PGE2 25 pm Cellular Potency in EP4 assay

B1: 2B5-8.0: recombinant anti-PGE2 antibody from solved 2B5 sequence; VH SEQ ID NO 42, VL SEQ ID NO 43 (antibody, V domains shown)
VH: QVQLQQSGPELVRPGSSVKISCKASGYTFTKYWLGWVKQRPGHGLEWIGDIYPGYDYTHYNEKFKDKATLTVDTSSSTAYMQLSSLTSEDSAIYYCARSDGSSTYWGQGTLVTVSA
VL: DVLMTQTPLSLPVSLGDQASISCTSSQNIVHSNGNTYLEWYLQRPGQSPKLLIYKVSNRFSGVPDRFSGSGSGTVFTLKISRVEAEDLGVYYCFQVSHVPYTFGGGTKLEIKR
[1]
  inhibition of PGE2 induced calcium influx in EP4 bioassay: potently inhibited
[1]; read-out: PGE2 Neutralization Potency in Cellular EP4 assay (IC50)
  IC50: 44 pM
[2]; 2,3-dinor-6-keto-PGF1α
  PG Selectivity in ^3H-PGE2 competition ELISA (CRI %) 2,3-dinor-6-keto-PGF1α: 0.019%
[2]; 5(S)-HETE
  PG Selectivity in ^3H-PGE2 competition ELISA (CRI %) 5(S)-HETE: <0.01%
[2]; 6-keto PGF1α
  PG Selectivity in ^3H-PGE2 competition ELISA (CRI %) 6-keto PGF1α: 0.64%
[2]; 8-iso PGF2α
  PG Selectivity in ^3H-PGE2 competition ELISA (CRI %) 8-iso PGF2α: 0.092%
[2]; 13,14-dihydroxyl-15-keto PGE2
  PG Selectivity in ^3H-PGE2 competition ELISA (CRI %) 13,14-dihydroxyl-15-keto PGE2: 0.012%
[2]; 15-keto PGE2
  PG Selectivity in ^3H-PGE2 competition ELISA (CRI %) 15-keto PGE2: 0.013%
[2]; 15R-Pinane TXA2
  PG Selectivity in ^3H-PGE2 competition ELISA (CRI %) 15R-Pinane TXA2: 0.00043%
[2]; 19R-hydroxy PGE2
  PG Selectivity in ^3H-PGE2 competition ELISA (CRI %) 19R-hydroxy PGE2: 0.09%
[2]; Arachidonic acid
  PG Selectivity in ^3H-PGE2 competition ELISA (CRI %) Arachidonic acid: <0.01%
[2]; Carbaprostacyclin
  PG Selectivity in ^3H-PGE2 competition ELISA (CRI %) Carbaprostacyclin: 0.18%
[2]; Carbocyclic TXA2
  PG Selectivity in ^3H-PGE2 competition ELISA (CRI %) Carbocyclic TXA2: 0.0005%
[2]; Iloprost
  PG Selectivity in ^3H-PGE2 competition ELISA (CRI %) Iloprost: 0.01%
[2]; LTE4
  PG Selectivity in ^3H-PGE2 competition ELISA (CRI %) LTE4: 0.012%
[2]; PGA2
  PG Selectivity in ^3H-PGE2 competition ELISA (CRI %) PGA2: 0.04%
[2]; PGB2
  PG Selectivity in ^3H-PGE2 competition ELISA (CRI %) PGB2: 0.00038%
[2]; PGD2
  PG Selectivity in ^3H-PGE2 competition ELISA (CRI %) PGD2: <1 × 10^−4%
[2]; PGE1
  PG Selectivity in ^3H-PGE2 competition ELISA (CRI %) PGE1: 3.6%
[2]; PGE2
  PG Selectivity in ^3H-PGE2 competition ELISA (CRI %) PGE2: 100%
[2]; PGF2α
  PG Selectivity in ^3H-PGE2 competition ELISA (CRI %) PGF2α: 0.05%
[2]; PGI2
  PG Selectivity in ^3H-PGE2 competition ELISA (CRI %) PGI2: 0.16%
[2]; Pinane TXA2
  PG Selectivity in ^3H-PGE2 competition ELISA (CRI %) Pinane TXA2: 0.00033%
[2]; TXB2
  PG Selectivity in ^3H-PGE2 competition ELISA (CRI %) TXB2: <0.01%

B2: Hu2B5.1: humanized 2B5-8.0; VH SEQ ID NO 60, VL SEQ ID NO 61 (antibody, V domains shown)
VH: EVQLVQSGAEVKKPGASVKVSCKASGYTFTKYWLGWVRQAPGQGLEWIGDIYPGYDYTHYNEKFKDRATLTVDTSTSTAYMELRSLRSDDTAVYYCARSDGSSTYWGQGTLVTVSS
VL: DVVMTQTPLSLPVTPGEPASISCTSSQNIVHSNGNTYLEWYLQKPGQSPQLLIYKVSNRFSGVPDRFSGSGSGTDFTLKISRVEAEDVGVYYCFQVSHVPYTFGGGTKVEIKR
[3]
  migration in capillary zone electrophoresis: migrated more basic
[1]; [4]
  IC50: 55 pM

B3: Hu2B5.3: humanized 2B5-8.0; VH SEQ ID NO 64, VL SEQ ID NO 65 (antibody, V domains shown)
VH: EVQLVQSGAEVKKPGASVKVSCKASGYTFTKYWLGWVRQAPGQGLEWIGDIYPGYDYTHYNEKFKDRATLTVDTSTSTAYMELRSLRSDDTAVYYCARSDGSSTYWGQGTLVTVSS
VL: DVLMTQTPLSLPVTPGEPASISCTSSQNIVHSNGNTYLEWYLQKPGQSPQLLIYKVSNRFSGVPDRFSGSGSGTDFTLKISRVEAEDVGVYYCFQVSHVPYTFGGGTKVEIKR
[3]
  migration in capillary zone electrophoresis: migrated more basic
[1]; [4]
  IC50: 47 pM

B4: Hu2B5.4: humanized 2B5-8.0; VH SEQ ID NO 66, VL SEQ ID NO 67 (antibody, V domains shown)
VH: EVQLVQSGAEVKKPGASVKVSCKASGYTFTKYWLGWVRQAPGQGLEWIGDIYPGYDYTHYNEKFKDRATLTVDTSTSTAYMELSSLRSDDTAVYYCARSDGSSTYWGQGTLVTVSS
VL: DVLMTQTPLSLPVTPGEPASISCTSSQNIVHSNGNTYLEWYLQKPGQSPQLLIYKVSNRFSGVPDRFSGSGSGTDFTLKISRVEAEDVGVYYCFQVSHVPYTFGGGTKVEIKR
[1]; [4]
  IC50: 40 pM

B5: Hu2B5.8: humanized 2B5-8.0; VH SEQ ID NO 74, VL SEQ ID NO 75 (antibody, V domains shown)
VH: EVQLVQSGAEVKKPGASVKVSCKASGYTFTKYWLGWVRQAPGQGLEWMGDIYPGYDYTHYNEKFKDRVTLTTDTSTSTAYMELSSLRSDDTAVYYCARSDGSSTYWGQGTLVTVSS
VL: DVLMTQTPLSLPVTPGEPASISCTSSQNIVHSNGNTYLEWYLQKPGQSPQLLIYKVSNRFSGVPDRFSGSGSGTDFTLKISRVEAEDVGVYYCFQVSHVPYTFGGGTKVEIKR
[1]; [4]
  IC50: 78 pM

B6: Hu2B5.2: humanized 2B5-8.0; VH SEQ ID NO 62, VL SEQ ID NO 63 (antibody, V domains shown)
VH: EVQLVQSGAEVKKPGASVKVSCKASGYTFTKYWLGWVRQAPGQGLEWIGDIYPGYDYTHYNEKFKDRATLTVDTSTSTAYMELSSLRSDDTAVYYCARSDGSSTYWGQGTLVTVSS
VL: DVVMTQTPLSLPVTPGEPASISCTSSQNIVHSNGNTYLEWYLQKPGQSPQLLIYKVSNRFSGVPDRFSGSGSGTDFTLKISRVEAEDVGVYYCFQVSHVPYTFGGGTKVEIKR
[1]; [4]
  IC50: 55 pM

B7: Hu2B5.6: humanized 2B5-8.0; VH SEQ ID NO 70, VL SEQ ID NO 71 (antibody, V domains shown)
VH: EVQLVQSGAEVKKPGASVKVSCKASGYTFTKYWLGWVRQAPGQGLEWMGDIYPGYDYTHYNEKFKDRVTLTTDTSTSTAYMELSSLRSDDTAVYYCARSDGSSTYWGQGTLVTVSS
VL: DVVMTQTPLSLPVTPGEPASISCTSSQNIVHSNGNTYLEWYLQKPGQSPQLLIYKVSNRFSGVPDRFSGSGSGTDFTLKISRVEAEDVGVYYCFQVSHVPYTFGGGTKVEIKR
[1]; [4]
  IC50: 52 pM
